The assay deals with T1, Ebola virus Viral Protein 40 (Ebola virus (Zaire ebolavirus), strain …, UniProt Q05128).
T1 construct: also called VP40; VP 40; source: bought: IBT Bioservices
Briefly: SPR. To be noted: both partners purified.

The text below walks through data of publication PMC4975481, “Importance of Hypervariable Region 2 for Stability and Affinity of a Shark Single-Domain Antibody Specific for Ebola Virus Nucleoprotein” (PLoS ONE, 2016).

T1 sequence (Q05128 whole entry): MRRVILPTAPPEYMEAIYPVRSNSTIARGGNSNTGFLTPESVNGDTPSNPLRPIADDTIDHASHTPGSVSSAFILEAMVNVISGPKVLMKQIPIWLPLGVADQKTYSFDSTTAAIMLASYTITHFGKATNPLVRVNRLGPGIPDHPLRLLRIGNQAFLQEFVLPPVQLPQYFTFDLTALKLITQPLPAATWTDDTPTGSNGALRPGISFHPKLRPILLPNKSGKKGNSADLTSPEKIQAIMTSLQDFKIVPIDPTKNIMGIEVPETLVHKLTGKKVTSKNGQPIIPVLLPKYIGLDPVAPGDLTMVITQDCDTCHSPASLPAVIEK

B1: shark096 (VHH)
VHH: RVDQTPRSVTKETGESLTINCVLRDASYAVGSTCWYRKKSGSTNEESISKGGRYVETVNSGSKSFSLRINDLTVEDGGTYRCGVSTYNWCGVRGLGCVHGACGDGTAVTVN
notes: also called unfused sdAb portion of DSTL096; parental sdAb
For B1, the binding result is listed as “no binding”.
